This note sets out measurements from article PMC6949598, “Structure-based mechanism of cysteine-switch latency and of catalysis by pappalysin-family metallopeptidases” (IUCrJ, 2020).

For this assay, the target named is T1, mature wild-type mirolysin (Tannerella forsythia, UniProt A0A0F7IPS1 55-331).
T1 construct: the model holds Pro58-Pro327; Holds one catalytic zinc and two calcium ions; disulfides Cys243-Cys271 and Cys262-Cys291; The promirolysin constructs were made in E. coli BL21 (DE3) as fusions with N-terminal GST and a PreScission site; also called mature mirolysin; CD; source: recombinant, prepared as previously described (Koneru et al., 2017)
The experiment in a line: crystal structure; mature mirolysin incubated at 1:2 molar ratio with BFO_2662, which was cleaved; sitting drop, 4 °C, protein ~12 mg/ml in 5 mM Tris HCl, 50 mM NaCl, 5 mM CaCl2, pH 8.0; reservoir 40% ethanol, 5% PEG 1000, 0.1 M phosphate-citrate pH 4.2; 1.5 Å; one complex per asymmetric unit. Conditions: both partners purified.

B1: tetradecapeptide K110-K123 of small lipoprotein BFO_2662 (peptide)
peptide: KRDPVYFIKLSTIK
notes: segment K110-K123 of small lipoprotein BFO_2662, Tannerella forsythia; numbered Lys1-Lys14 in the structure; only the first seven residues were assigned unambiguously from the map; A citrate (CIT-1) in sub-site S1 belongs to molecule B of the model but is no part of the peptide; also called Lys1-Lys14; product; source: cleavage product of BFO_2662, cut by mirolysin during crystallization …
Consider B1, for which the binding result is “binds”.
